Measured values published in US20080176953A1, “Methods and compositions for treatment of ocular neovascularization and neural injury” (Allergan, Inc., priority 2000, published 2008).

B1: PEDF: polypeptide originally isolated from cultured fetal human retinal pigment epithelial cells, approximate molecular weight 50 kDa (protein, UniProt P36955 20-418, looked up)
Pigment epithelium-derived …: QNPASPPEEGSPDPDSTGALVEEEDPFFKVPVNKLAAAVSNFGYDLYRVRSSTSPTTNVLLSPLSVATALSALSLGAEQRTESIIHRALYYDLISSPDIHGTYKELLDTVTAPQKNLKSASRIVFEKKLRIKSSFVAPLEKSYGTRPRVLTGNPRLDLQEINNWVQAQMKGKLARSTKEIPDEISILLLGVAHFKGQWVTKFDSRKTSLEDFYLDEERTVRVPMMSDPKAVLRYGLDSDLSCKIAQLPLTGSMSIIFFLPLKVTQNLTLIEESLTSEFIHDIDRELKTVQAVLTVPKLKLSYEGEVTKSLQEMKLQSLFDSPDFSKITGKPIKLTQVEHRAGFEWNEDGAGTTPSPGLQPAHLTFPLDYHLNQPFIFVLRDTDTGALLFIGKILDPRGP

Key:
photoreceptors = conditions: intravitreal injection of purified NGF; cited from earlier work
[1] = system: "wet" age-related macular degeneration (ARMD); assay: Photodynamic therapy (verteporfin) combined with intravenous PEDF in a patient, Example 1; format: in vivo
Method: The day of scheduled PDT treatment, the patient is administered 6 mg/M^2 of verteporfin. […] The treatment requires irradiation of the […].

retinoblastoma cells = conditions: cited from earlier work
brain neurons in culture = conditions: cited from earlier work

Molecule	survival of photoreceptors (photoreceptors)	visual acuity ([1]; 4 and 12 weeks following combined PDT and PEDF treatment)	renewed neovascularization ([1]; 12 weeks following PDT treatment)	optic nerve axon loss ([1]; after PDT with irradiation of the optic nerve)	Fluorescein angiography, leakage in the treated tissue ([1]; after one week and throughout the monitoring period)	visual inspection of the retina (affected areas) ([1]; one week following PDT, continuing through 12 week monitoring, intravenous PEDF every two days, verteporfin 6 mg/M^2)	differentiation of the retinoblastoma cells (retinoblastoma cells)	activity after heat incubation (retinoblastoma cells; incubation of PEDF at 75° C.)	elaboration of neuron-like processes (retinoblastoma cells; undifferentiated retinoblastoma cells)	life of brain neurons in culture (brain neurons in culture)	protection against acute neurotoxic insult (brain neurons in culture; e.g., glutamate toxicity)
NGF: polypeptide known to have neuroprotective and neurotrophic effects	Increased survival of photoreceptors										
B1		no discernable loss of vision	No evidence of renewed neovascularization	no evidence of optic nerve axon loss	minimal leakage	healthy with no whitening	induces differentiation	does not prevent PEDF from differentiating retinoblastoma cells	stimulate the elaboration of neuron-like processes	prolongs the life	protects neurons
